Source: the Human Domainome abundance scans (Beltran et al. 2025)

B1: Intersectin-1, residues 1156 to 1213; numbered along this chain, Q15811 (parent)
chain: AVCQVIGMYDYTAQNDDELAFNKGQIINVLNKEDPDWWKGEVNGQVGLFPSNYVKLTT

Variants of: B1
Experiment: abundance fitness (aPCA) (normalised: wild type 0, dead -1); higher = more abundant; growth selection in yeast, the domain comes from the species named
Details: Homo sapiens

Abundance fitness: each site, then its substitutions
E41: Y -0.887; Q -0.863; W -0.642; D -1.11; K -0.456; A -0.568; R -0.746; I -0.936; S -0.299; F -1.22; N -0.889; V -0.681; H -0.495; G -0.842; P -1; C -0.787
Q45: A 0.016
I26: Q -0.304; S -0.554; E -0.278; G -0.857; F -0.523; W -0.505; C -0.149; M -0.462; P -0.561; V 0.297; A -0.237; L 0.18; H -0.332; T 0.163; D -0.807; K -0.084; R -0.131
I27: N -0.765; A -0.789; D -0.695; F -0.805; W -0.908; S -0.915; V -0.297; G -0.746; R -0.85; E -0.811; Y -0.564; T -0.859; M -0.696; Q -1.05; K -0.81; P -0.612; L -0.373; H -0.748
K32: W -0.109; Y -0.341; L -0.38; Q -0.035; R 0.066; P -0.736; S -0.16; C -0.147; D -0.296; N -0.339; T -0.093; M -0.039; H -0.449; F -0.576; A 0.093; G -0.527
D34: A -0.385; N -0.348; C -0.553; V -0.691; I -0.974; E -0.376; F -0.554; T -0.383; Y -0.94; Q -0.489; P -0.543; K -0.176; W -0.894; G -0.409; R -0.116; L -0.673; H -0.158; S -0.221
G24: N -0.348; S -0.524; Q -0.44; T -0.599; E -0.895; W -0.528; F -0.739; A -0.854; M -0.693; P -0.825; I -0.682; V -0.895; K -0.571; D -0.579
V42: M -0.093; D -0.663; Q -0.617; K -0.405; L 0.018; R -0.274; T -0.299; E -0.949; I -0.048; G -0.62; C 0.091; N -0.756; Y 0.042; P -0.72; W -0.811; H -0.237; A 0.041
K23: H -0.298; N -0.494; I -0.849; L -0.77; M -0.487; G -0.701; A 0.215; W -0.852; R 0.137; Y -0.673; S -0.214; V -0.21; D -0.859; T 0.065; C -0.275; Q -0.043; E -0.011; F -0.613; P -0.921
K39: V -0.448
D36: I -0.138; C -0.117; E -0.196; T -0.143; A -0.004; F -0.175; M -0.018; L -0.072; H -0.08; G -0.279; K 0.071; N -0.203; P -0.53; V -0.069; R -0.009; S -0.131; Y 0.01; Q -0.218
W38: K -0.671; T -0.892; N -0.644; I -1.03; A -0.533; P -0.853; D -0.674; S -0.763; R -1.08; E -0.779; C -0.793; G -0.822; V -0.906; Y -0.791; L -0.737; M -0.733; Q -0.715; F -0.859; H -0.793
G40: T -0.56; K -0.848; D -0.722; L -0.783; V -0.891; M -0.658; P -0.591; A -0.753; Y -0.73; F -0.953; I -0.752; S -0.839; E -0.769; W -0.981; H -0.832
L30: K -0.825; Q -0.257; E -0.978; Y -0.32; P -1.04; T -0.476; G -0.933; R -0.712; D -0.917; I 0.043; S -0.758; H -0.7; M -0.412; C -0.867; N -0.505; F -0.123; A -0.911; V -0.081
W37: R -0.49; L -0.339; C -0.588; E -0.737; D -0.637; H -0.887; T -0.276; Y -0.058; P -0.947; Q -0.223; K -0.792; G -0.72; M 0.004; F -0.307; I -0.022; S -0.778; A -0.585
N43: Y -0.734; F -0.799; E -0.189; L -0.412; V -0.794; C -0.541; G -0.241; A -0.263; P -0.736; T -0.85; H -0.08; Q -0.36; I -0.93; K -0.411; D -0.03; R -0.436; S -0.294; M -0.56; W -1.06
N31: F -1.05; Q -0.099; H -0.095; L -0.631; K -0.319; C 0.287; P -0.833; M -0.275; A 0.037; R -0.373; W -0.287; D 0.223; T -0.159; Y -0.525; S 0.006; I -0.559; G -0.076; E 0.196; V -0.313
V29: C -0.219; L -0.323; E -0.925; Q -1.01; R -0.9; G -0.742; D -0.739; H -1.03; S -0.827; K -0.699; I -0.617; W -0.672; N -0.721; Y -0.504; T -0.788
N28: Y -0.011; F -0.243; P -0.942; K -0.014; D -0.284; A -0.225; S 0.186; V -0.423; G -0.732; I -0.451; R -0.065; E -0.156; Q -0.399; M -0.298; C -0.632; T 0.281
G44: K -0.981; P -0.806; Q -0.613; I -0.797; S -0.677; T -0.92; C -0.682; H -0.658; L -0.879; E -0.911; M -0.88; Y -0.734; N -0.219; W -0.832; R -0.83; A -0.56; D -0.397
E33: W -0.987; V -0.324; G -0.241; T -0.075; H -0.373; R -0.367; S -0.101; L -0.497; Q -0.077; N -0.516; P -0.6; K -0.236; A -0.211; F -0.61; D -0.047; I -0.451
N22: K -0.027; W -0.466; L -0.285; S 0.009; P -0.062; M 0.02; V -0.06; Y -0.422
